The values below are quoted from earlier work in PMC12521419.

Data set [1] has as its system LMBV virion (largemouth bass virus particle; binding protein not identified) (Largemouth bass virus (genus Ranavirus, family Iridoviridae), isolated from diseased largemouth bass, propagated in FHM cells). Nature of the data set: not stated for truncated form (ELASA stated for parent LA13). Conditions: PBS, aptamers 500 nM each with LMBV in 100 uL for 1 h (temperature not stated); streptavidin beads 4 C 30 min; washes PBS + 0.1% Tween-20; SDA 37 C 30 min ….

Data set [2] shares this test system. Nature of the data set: not stated for truncated form (ELASA stated for parent LA38). Conditions: PBS, aptamers 500 nM each with LMBV in 100 uL for 1 h (temperature not stated); streptavidin beads 4 C 30 min; washes PBS + 0.1% Tween-20; SDA 37 C 30 min ….

As for “TTTTGACGCTTTATCCTTTTCTTATGGCGGGATAGTTTCG [LA13s]”, in data set [1], the Kd was 2.34 nM.
As to “GCCGGCCCGGGGGATAGAGTGCTCCCGATCCCTTGGCGAAGGGAC [LA38s]”, the Kd in data set [2] was 3.42 nM.

As a reminder, the Kd is the equilibrium constant for the complex coming apart.
